{"source": "patent US20030199671A1", "about": "“Binding molecules for Fc-region polypeptides” (priority 2001, published 2003)", "key": {"[1]": {"biological_target": "T1, human IgG1 (Homo sapiens, UniProt P01857)", "T1 construct": "all human subtypes derived from myeloma patients; purchased Calbiochem 400120; host or cells: myeloma patients", "T1 sequence (P01857 1-330 isoform P01857-1)": "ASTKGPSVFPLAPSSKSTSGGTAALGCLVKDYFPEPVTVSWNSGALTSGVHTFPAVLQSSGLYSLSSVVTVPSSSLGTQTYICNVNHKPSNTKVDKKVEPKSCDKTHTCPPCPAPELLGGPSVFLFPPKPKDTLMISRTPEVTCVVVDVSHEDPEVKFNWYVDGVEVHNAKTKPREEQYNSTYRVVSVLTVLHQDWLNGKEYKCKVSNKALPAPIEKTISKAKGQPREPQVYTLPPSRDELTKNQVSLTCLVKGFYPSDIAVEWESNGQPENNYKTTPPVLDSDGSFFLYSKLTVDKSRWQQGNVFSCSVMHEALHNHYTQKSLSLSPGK", "type": "binding", "conditions": "for % IgG Capture - Batch Binding, Human IgG1: Table 9, immobilized peptide, 5.0 mg/ml resin load", "how_it_was_run": "(§1)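 Read-out is A280 of unbound IgG (1.4 mg/ml extinction coefficient), with percent bound derived against non-filtered or negative controls. Targets were incubated with immobilized peptides in PBST or TBST for 1-1.5 h at room temperature. Hydrolyzed Sepharose and immobilized Protein A serve as negative and positive controls.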"}, "[2]": {"biological_target": "T2, human IgG2 (Homo sapiens, UniProt P01859)", "T2 construct": "all human subtypes derived from myeloma patients; purchased Calbiochem 400122; host or cells: myeloma patients", "T2 sequence (P01859 1-326 isoform P01859-1)": "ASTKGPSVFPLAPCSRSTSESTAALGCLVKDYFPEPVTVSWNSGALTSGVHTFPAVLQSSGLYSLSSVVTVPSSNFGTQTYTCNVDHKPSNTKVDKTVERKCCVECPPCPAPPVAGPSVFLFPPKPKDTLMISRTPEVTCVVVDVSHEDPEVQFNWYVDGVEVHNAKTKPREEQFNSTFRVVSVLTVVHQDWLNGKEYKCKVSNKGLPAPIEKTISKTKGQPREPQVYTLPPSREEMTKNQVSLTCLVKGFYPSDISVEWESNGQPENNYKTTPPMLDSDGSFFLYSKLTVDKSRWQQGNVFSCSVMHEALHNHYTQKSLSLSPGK", "type": "binding", "how_it_was_run": "as §1"}, "[3]": {"test_system": "human IgG", "type": "binding", "how_it_was_run": "(§2)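 Unfractionated IgG in PBST (10 mM phosphate, 150 mM NaCl, 0.01% Tween 20, pH 7.2) or TBST (50 mM Tris, pH 7.5) was batch-incubated with immobilized peptide resin for 1-1.5 h at room temperature. Unbound IgG was quantitated by A280, and percent bound was taken by subtraction from control values.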"}, "[4]": {"test_system": "mouse IgG", "type": "binding", "how_it_was_run": "as §2"}, "[5]": {"test_system": "human IgG", "experiment": "Dynamic (mini-column) binding capacity", "protocol": "These media were used to determine the effect of ligand density on human IgG binding capacity in both static (filterplate) and dynamic (mini-column) modes with commercial immobilized recombinant Protein A (Repligen, IPA400) at a single density as control.\nThe IgG solution was loaded onto the column at a flow rate of 0.2 ml/minute (170 cm/hr). […] At the end of the loading period, the column was washed with PBS until the absorbance at 280 nm of the column eluant returned to baseline. […] Neutralizing the pH of the eluted fractions was unnecessary since the total IgG eluted was determined by total protein absorbance at 280 nm.\nTo establish total media capacities, IgG was loaded onto the columns until the absorbances of the column load and flow through streams were identical (loading to full capacity). After washing the column to baseline, bound IgG was eluted and the total amount captured from this elution fraction determined. The total capacity of the media (mg IgG/ml media) as total IgG captured divided by the column bed volume was calculated.\nAdditionally, column capacities at 10% breakthrough were calculated from the online A280 measurements of column flowthrough streams. The A280 curves obtained for the column of interest and for an equivalent “blank” column containing hydrolyzed Sepharose FF 4 media were aligned. The difference in areas between these curves (for a retained and non-retained target) from the time of injection to the time at which the A280 value for the column of interest had risen to 10% of the maximum A280 absorbance (100%) obtained for the load solution at 100% IgG capture saturation (10% breakthrough) was graphically integrated. A standard curve was used to relate the integrated area to mg IgG bound and capacity calculated as total IgG bound divided by column bed volume."}, "[6]": {"biological_target": "IgG3 (Homo sapiens, UniProt P01860)", "sequence (P01860 1-377 isoform P01860-1)": "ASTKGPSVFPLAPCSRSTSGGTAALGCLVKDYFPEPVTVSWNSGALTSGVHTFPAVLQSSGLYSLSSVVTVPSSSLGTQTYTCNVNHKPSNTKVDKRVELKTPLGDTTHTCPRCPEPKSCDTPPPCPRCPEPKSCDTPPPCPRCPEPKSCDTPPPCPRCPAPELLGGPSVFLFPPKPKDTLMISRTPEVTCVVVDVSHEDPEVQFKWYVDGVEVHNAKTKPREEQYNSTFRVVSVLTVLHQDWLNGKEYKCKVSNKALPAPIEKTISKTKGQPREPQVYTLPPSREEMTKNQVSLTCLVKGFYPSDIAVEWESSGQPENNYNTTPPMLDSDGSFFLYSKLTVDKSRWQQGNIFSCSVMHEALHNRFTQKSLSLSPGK", "type": "binding", "set-up": "all human subtypes derived from myeloma patients; purchased Calbiochem 400124; host or cells: myeloma patients", "conditions": "for % IgG Capture - Batch Binding, Human IgG3: Table 9, immobilized peptide, 5.0 mg/ml resin load", "how_it_was_run": "as §1"}, "[7]": {"biological_target": "IgG4 (Homo sapiens, UniProt P01861)", "sequence (P01861 1-327 isoform P01861-1)": "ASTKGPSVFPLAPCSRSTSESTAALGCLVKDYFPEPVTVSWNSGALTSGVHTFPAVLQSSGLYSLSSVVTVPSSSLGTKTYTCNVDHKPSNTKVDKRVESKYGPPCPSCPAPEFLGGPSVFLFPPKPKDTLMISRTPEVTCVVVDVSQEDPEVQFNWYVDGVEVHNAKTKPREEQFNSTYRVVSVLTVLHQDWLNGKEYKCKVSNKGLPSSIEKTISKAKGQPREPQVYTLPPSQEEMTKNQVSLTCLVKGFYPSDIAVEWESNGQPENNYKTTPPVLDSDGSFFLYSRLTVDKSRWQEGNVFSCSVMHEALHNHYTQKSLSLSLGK", "type": "binding", "set-up": "all human subtypes derived from myeloma patients; purchased Calbiochem 400126; host or cells: myeloma patients", "conditions": "for % IgG Capture - Batch Binding, Human IgG4: Table 9, immobilized peptide, 5.0 mg/ml resin load", "how_it_was_run": "as §1"}, "[8]": {"test_system": "bovine IgG", "type": "binding", "conditions": "Table 11; unfractionated IgG", "how_it_was_run": "as §2"}, "[9]": {"test_system": "goat IgG", "type": "binding", "conditions": "Table 11; unfractionated IgG", "how_it_was_run": "as §2"}, "[10]": {"conditions": "Table 10, elution 0.1 M sodium bicarbonate buffer, pH 8.5"}, "[11]": {"conditions": "Table 10, elution 0.1 M sodium citrate buffer, pH 4.0"}, "[12]": {"conditions": "Table 14, average ligand density 1.8 μM/ml"}}, "note": "Like-named read-outs stand apart in the source and are kept apart here. Positions of bridges follow the written chain, without caps; N, C: chain ends. Residues, ends and D or L forms follow the SMILES beside them."}
{"compound": "Ac-GDRRACSRDWSGALVWCAGHEPGPEGGGK-NH2 (not fully specified (bridges); printed as Ac-GDRRACSRDWSGALVWCAGHEPGPEGGGK-NH2; cysteine pairing not given here) [DX253]", "values": [{"measurement": "% IgG Capture - Batch Binding, Human IgG1", "setting": "[1]", "value": 58, "unit": "%"}, {"measurement": "Human IgG1 elu pH 8.5 (% of Total Load)", "setting": "[1]; [10]", "value": 44, "unit": "%"}, {"measurement": "Human IgG1 elu pH 4.0 (% of Total Load)", "setting": "[1]; [11]", "value": 14, "unit": "%"}, {"measurement": "hIgG1 elution pH 2.5 (% of Total Load)", "setting": "[1]; Table 13", "value": 78, "unit": "%"}, {"measurement": "hIgG1 elution pH 3.0 (% of Total Load)", "setting": "[1]; Table 13", "value": 75, "unit": "%"}, {"measurement": "hIgG1 elution pH 3.5 (% of Total Load)", "setting": "[1]; Table 13", "value": 54, "unit": "%"}, {"measurement": "hIgG1 elution pH 4.5 (% of Total Load)", "setting": "[1]; Table 13", "value": 55, "unit": "%"}, {"measurement": "hIgG1 elution pH 5.5 (% of Total Load)", "setting": "[1]; Table 13", "value": 8, "unit": "%"}, {"measurement": "hIgG1 elution pH 9.0 (% of Total Load)", "setting": "[1]; Table 13", "value": 44, "unit": "%"}, {"measurement": "hIgG1 elution pH 9.5 (% of Total Load)", "setting": "[1]; Table 13", "value": 45, "unit": "%"}, {"measurement": "Batch Binding (% Capture of Total Load) hIgG1", "setting": "[1]; peptide immobilized on NHS activated sepharose 4 fast flow, target ligand density 2.0 μmole/ml, batch filterplate, hIgG1", "value": 88, "unit": "%"}, {"measurement": "Human IgG2 elu pH 8.5 (% of Total Load)", "setting": "[2]; [10]", "value": 32, "unit": "%"}, {"measurement": "Human IgG2 elu pH 4.0 (% of Total Load)", "setting": "[2]; [11]", "value": 12, "unit": "%"}, {"measurement": "hIgG2 elution pH 2.5 (% of Total Load)", "setting": "[2]; Table 13", "value": 78, "unit": "%"}, {"measurement": "hIgG2 elution pH 3.0 (% of Total Load)", "setting": "[2]; Table 13", "value": 69, "unit": "%"}, {"measurement": "hIgG2 elution pH 3.5 (% of Total Load)", "setting": "[2]; Table 13", "value": 55, "unit": "%"}, {"measurement": "hIgG2 elution pH 4.5 (% of Total Load)", "setting": "[2]; Table 13", "value": 31, "unit": "%"}, {"measurement": "hIgG2 elution pH 9.0 (% of Total Load)", "setting": "[2]; Table 13", "value": 42, "unit": "%"}, {"measurement": "hIgG2 elution pH 9.5 (% of Total Load)", "setting": "[2]; Table 13", "value": 47, "unit": "%"}, {"measurement": "Batch Binding (% Capture of Total Load) hIgG2", "setting": "[2]; peptide immobilized on NHS activated sepharose 4 fast flow, target ligand density 2.0 μmole/ml, batch filterplate, hIgG2", "value": 80, "unit": "%"}, {"measurement": "% IgG Capture - Batch Binding, Human IgG", "setting": "[3]; Table 11, unfractionated IgG", "value": 54, "unit": "%"}, {"measurement": "% IgG Capture - Batch Binding, Human IgG", "setting": "[3]; [12]", "value": 71, "unit": "%"}, {"measurement": "Batch Binding (% Capture of Total Load) hIgG", "setting": "[3]; peptide immobilized on NHS activated sepharose 4 fast flow, target ligand density 2.0 μmole/ml, batch filterplate, hIgG", "value": 79, "unit": "%"}, {"measurement": "% IgG Capture - Batch Binding, Mouse IgG", "setting": "[4]; Table 11, unfractionated IgG", "value": 2, "unit": "%"}, {"measurement": "% IgG Capture - Batch Binding, Mouse IgG", "setting": "[4]; [12]", "value": 2, "unit": "%"}, {"measurement": "Capacity (mg IgG/mL resin) 10% Breakthrough", "setting": "[5]; Ligand Density 0.17 μM/mL", "value": 0.1, "unit": "mg IgG/mL resin"}, {"measurement": "Capacity (mg IgG/mL resin) Total Dynamic", "setting": "[5]; Ligand Density 0.17 μM/mL", "value": 0.6, "unit": "mg IgG/mL resin"}, {"measurement": "Capacity (mg IgG/mL resin) 10% Breakthrough", "setting": "[5]; Ligand Density 0.84 μM/mL", "value": 2.6, "unit": "mg IgG/mL resin"}, {"measurement": "Capacity (mg IgG/mL resin) Total Dynamic", "setting": "[5]; Ligand Density 0.84 μM/mL", "value": 5.8, "unit": "mg IgG/mL resin"}, {"measurement": "Capacity (mg IgG/mL resin) 10% Breakthrough", "setting": "[5]; Ligand Density 1.45 μM/mL", "value": 2.9, "unit": "mg IgG/mL resin"}, {"measurement": "Capacity (mg IgG/mL resin) Total Dynamic", "setting": "[5]; Ligand Density 1.45 μM/mL", "value": 6.4, "unit": "mg IgG/mL resin"}, {"measurement": "Capacity (mg IgG/mL resin) 10% Breakthrough", "setting": "[5]; Ligand Density 2.75 μM/mL", "value": 8.5, "unit": "mg IgG/mL resin"}, {"measurement": "Capacity (mg IgG/mL resin) Total Dynamic", "setting": "[5]; Ligand Density 2.75 μM/mL", "value": 24.1, "unit": "mg IgG/mL resin"}, {"measurement": "% IgG Capture - Batch Binding, Human IgG3", "setting": "[6]", "value": 7, "unit": "%"}, {"measurement": "Human IgG3 elu pH 4.0 (% of Total Load)", "setting": "[6]; [11]", "value": 5, "unit": "%"}, {"measurement": "% IgG Capture - Batch Binding, Human IgG4", "setting": "[7]", "value": 33, "unit": "%"}, {"measurement": "Human IgG4 elu pH 8.5 (% of Total Load)", "setting": "[7]; [10]", "value": 22, "unit": "%"}, {"measurement": "hIgG4 elution pH 2.5 (% of Total Load)", "setting": "[7]; Table 13", "value": 49, "unit": "%"}, {"measurement": "hIgG4 elution pH 3.0 (% of Total Load)", "setting": "[7]; Table 13", "value": 49, "unit": "%"}, {"measurement": "hIgG4 elution pH 3.5 (% of Total Load)", "setting": "[7]; Table 13", "value": 53, "unit": "%"}, {"measurement": "hIgG4 elution pH 4.5 (% of Total Load)", "setting": "[7]; Table 13", "value": 23, "unit": "%"}, {"measurement": "hIgG4 elution pH 5.5 (% of Total Load)", "setting": "[7]; Table 13", "value": 4, "unit": "%"}, {"measurement": "hIgG4 elution pH 9.0 (% of Total Load)", "setting": "[7]; Table 13", "value": 45, "unit": "%"}, {"measurement": "hIgG4 elution pH 9.5 (% of Total Load)", "setting": "[7]; Table 13", "value": 62, "unit": "%"}, {"measurement": "Batch Binding (% Capture of Total Load) hIgG4", "setting": "[7]; peptide immobilized on NHS activated sepharose 4 fast flow, target ligand density 2.0 μmole/ml, batch filterplate, hIgG4", "value": 58, "unit": "%"}]}
{"compound": "CC(=O)N[C@@H](C)C(=O)NCC(=O)N1CCC[C@H]1C(=O)N[C@@H](Cc1c[nH]cn1)C(=O)N[C@@H](CC(N)=O)C(=O)N[C@H]1CSSC[C@@H](C(=O)N[C@@H](CCCCN)C(=O)N[C@@H](Cc2c[nH]c3ccccc23)C(=O)N[C@@H](Cc2ccccc2)C(=O)N2CCC[C@H]2C(=O)NCC(=O)N2CCC[C@H]2C(=O)N[C@@H](CCC(=O)O)C(=O)NCC(=O)NCC(=O)NCC(=O)N[C@@H](CCCCN)C(N)=O)NC(=O)[C@H](Cc2ccc(O)cc2)NC(=O)[C@H](Cc2c[nH]c3ccccc23)NC(=O)[C@H](Cc2ccc(O)cc2)NC(=O)[C@H](Cc2c[nH]cn2)NC(=O)[C@H](CC(=O)O)NC(=O)[C@H](CC(=O)O)NC1=O", "note": "[DX389] (Ac-AGPHNCDDHYWYCKWFPGPEGGGK-NH2; disulfide 6-13 (inferred))", "values": [{"measurement": "% IgG Capture - Batch Binding, Bovine IgG", "setting": "[8]", "value": 0, "unit": "%"}, {"measurement": "% IgG Capture - Batch Binding, Goat IgG", "setting": "[9]", "value": 0, "unit": "%"}, {"measurement": "% IgG Capture - Batch Binding, Human IgG1", "setting": "[1]", "value": 4, "unit": "%"}, {"measurement": "% IgG Capture - Batch Binding, Human IgG2", "setting": "[2]; Table 9, immobilized peptide, 5.0 mg/ml resin load", "value": 11, "unit": "%"}, {"measurement": "% IgG Capture - Batch Binding, Human IgG", "setting": "[3]; Table 11, unfractionated IgG", "value": 4, "unit": "%"}, {"measurement": "% IgG Capture - Batch Binding, Mouse IgG", "setting": "[4]; Table 11, unfractionated IgG", "value": 0, "unit": "%"}, {"measurement": "% IgG Capture - Batch Binding, Human IgG3", "setting": "[6]", "value": 26, "unit": "%"}, {"measurement": "% IgG Capture - Batch Binding, Human IgG4", "setting": "[7]", "value": 3, "unit": "%"}]}
